Results published in patent US20240108738A1 (Bicycle, published 2024).
Numbered stars: 1 amine (or outer) side, 2 acyl side, 3 side chain; on linkers, the order of the positions; unused ones are H or OH. Bridge positions count the residues as written; N and C are the ends. Square brackets hold non-standard residues; d marks the D form. Ends that are not written are not given here. * marks the point of attachment. TATA = O=C(CC[*:1])N1CN(C(=O)CC[*:2])CN(C(=O)CC[*:3])C1; Trp(5-F) = N[C@@H](Cc1c[nH]c2ccc(F)cc12)C(=O)O; Trp(6-F) = N[C@@H](Cc1c[nH]c2cc(F)ccc12)C(=O)O; Trp(6-Me) = Cc1ccc2c(C[C@H](N)C(=O)O)c[nH]c2c1; Trp(7-Me) = Cc1cccc2c(C[C@H](N)C(=O)O)c[nH]c12; Trp(2-Me) = Cc1[nH]c2ccccc2c1C[C@H](N)C(=O)O; Ala(2-furyl) = N[C@@H](Cc1ccco1)C(=O)O; Nva(3-Et) = CCC(CC)[C@H](N)C(=O)O; aIle = CC[C@@H](C)[C@H](N)C(=O)O; Cba = N[C@@H](CC1CCC1)C(=O)O; Pip = O=C(O)[C@@H]1CCCCN1; Nle = CCCC[C@H](N)C(=O)O; Pent4ynoyl = C#CCCC(=O)*; Nva = CCC[C@H](N)C(=O)O; Dap = NC[C@H](N)C(=O)O; Aib = CC(C)(N)C(=O)O; GABA = NCCCC(=O)O

B1: BCY19697 (peptide)
peptide: [Dap]CNLQAPCMLTGKVCA-NH2
modifications: linker 2-8-15 via TATA; N-terminus assumed
SMILES: CSCC[C@@H]1NC(=O)[C@@H]2CSCCC(=O)N3CN(CN(C3)C(=O)CCSC[C@H](NC(=O)[C@@H](N)CN)C(=O)N[C@@H](CC(N)=O)C(=O)N[C@@H](CC(C)C)C(=O)N[C@@H](CCC(N)=O)C(=O)N[C@@H](C)C(=O)N3CCC[C@H]3C(=O)N2)C(=O)CCSC[C@@H](C(=O)N[C@@H](C)C(N)=O)NC(=O)[C@H](C(C)C)NC(=O)[C@H](CCCCN)NC(=O)CNC(=O)[C@H]([C@@H](C)O)NC(=O)[C@H](CC(C)C)NC1=O
notes: scaffold TATA
B2: BCY19699 (peptide)
peptide: [GABA]CNLQAPCMLTGKVCA-NH2
modifications: linker 2-8-15 via TATA
notes: scaffold TATA
B3: BCY19701 (peptide)
peptide: ACNLQA[Pip]CMLTGKVCA-NH2
modifications: linker 2-8-15 via TATA; N-terminus assumed
SMILES: CSCC[C@@H]1NC(=O)[C@@H]2CSCCC(=O)N3CN(CN(C3)C(=O)CCSC[C@@H](C(=O)N[C@@H](C)C(N)=O)NC(=O)[C@H](C(C)C)NC(=O)[C@H](CCCCN)NC(=O)CNC(=O)[C@H]([C@@H](C)O)NC(=O)[C@H](CC(C)C)NC1=O)C(=O)CCSC[C@H](NC(=O)[C@H](C)N)C(=O)N[C@@H](CC(N)=O)C(=O)N[C@@H](CC(C)C)C(=O)N[C@@H](CCC(N)=O)C(=O)N[C@@H](C)C(=O)N1CCCC[C@H]1C(=O)N2
notes: scaffold TATA
B4: BCY19703 (peptide)
peptide: ACNLQAPCM[Nle]TGKVCA-NH2
modifications: linker 2-8-15 via TATA
notes: scaffold TATA
B5: BCY19704 (peptide)
peptide: ACNLQAPCM[Nva]TGKVCA-NH2
modifications: linker 2-8-15 via TATA; N-terminus assumed
SMILES: CCC[C@@H]1NC(=O)[C@H](CCSC)NC(=O)[C@@H]2CSCCC(=O)N3CN(CN(C3)C(=O)CCSC[C@@H](C(=O)N[C@@H](C)C(N)=O)NC(=O)[C@H](C(C)C)NC(=O)[C@H](CCCCN)NC(=O)CNC(=O)[C@H]([C@@H](C)O)NC1=O)C(=O)CCSC[C@H](NC(=O)[C@H](C)N)C(=O)N[C@@H](CC(N)=O)C(=O)N[C@@H](CC(C)C)C(=O)N[C@@H](CCC(N)=O)C(=O)N[C@@H](C)C(=O)N1CCC[C@H]1C(=O)N2
notes: scaffold TATA
B6: BCY19706 (peptide)
peptide: ACNLQAPCMLTGK[aIle]CA-NH2
modifications: linker 2-8-15 via TATA; N-terminus assumed
SMILES: CC[C@@H](C)[C@@H]1NC(=O)[C@H](CCCCN)NC(=O)CNC(=O)[C@H]([C@@H](C)O)NC(=O)[C@H](CC(C)C)NC(=O)[C@H](CCSC)NC(=O)[C@@H]2CSCCC(=O)N3CN(CN(C3)C(=O)CCSC[C@@H](C(=O)N[C@@H](C)C(N)=O)NC1=O)C(=O)CCSC[C@H](NC(=O)[C@H](C)N)C(=O)N[C@@H](CC(N)=O)C(=O)N[C@@H](CC(C)C)C(=O)N[C@@H](CCC(N)=O)C(=O)N[C@@H](C)C(=O)N1CCC[C@H]1C(=O)N2
notes: scaffold TATA
B7: BCY19707 (peptide)
peptide: ACNLQAPCMLTGK[Nva(3-Et)]CA-NH2
modifications: linker 2-8-15 via TATA; N-terminus assumed
SMILES: CCC(CC)[C@@H]1NC(=O)[C@H](CCCCN)NC(=O)CNC(=O)[C@H]([C@@H](C)O)NC(=O)[C@H](CC(C)C)NC(=O)[C@H](CCSC)NC(=O)[C@@H]2CSCCC(=O)N3CN(CN(C3)C(=O)CCSC[C@@H](C(=O)N[C@@H](C)C(N)=O)NC1=O)C(=O)CCSC[C@H](NC(=O)[C@H](C)N)C(=O)N[C@@H](CC(N)=O)C(=O)N[C@@H](CC(C)C)C(=O)N[C@@H](CCC(N)=O)C(=O)N[C@@H](C)C(=O)N1CCC[C@H]1C(=O)N2
notes: scaffold TATA
B8: BCY19710 (peptide)
peptide: ACNLQA[Nva]CMLTGKVCA-NH2
modifications: linker 2-8-15 via TATA; N-terminus assumed
SMILES: CCC[C@@H]1NC(=O)[C@H](C)NC(=O)[C@H](CCC(N)=O)NC(=O)[C@H](CC(C)C)NC(=O)[C@H](CC(N)=O)NC(=O)[C@@H](NC(=O)[C@H](C)N)CSCCC(=O)N2CN3CN(C2)C(=O)CCSC[C@@H](C(=O)N[C@@H](C)C(N)=O)NC(=O)[C@H](C(C)C)NC(=O)[C@H](CCCCN)NC(=O)CNC(=O)[C@H]([C@@H](C)O)NC(=O)[C@H](CC(C)C)NC(=O)[C@H](CCSC)NC(=O)[C@H](CSCCC3=O)NC1=O
notes: scaffold TATA
B9: BCY19717 (peptide)
peptide: ACDLTTHNCQWGIC[Aib]-NH2
modifications: linker 2-9-14 via TATA
notes: scaffold TATA
B10: BCY19721 (peptide)
peptide: ACDLTTHNCQ[Trp(2-Me)]GICA-NH2
modifications: linker 2-9-14 via TATA
notes: scaffold TATA
B11: BCY19722 (peptide)
peptide: ACDLTTHNCQ[Trp(6-Me)]GICA-NH2
modifications: linker 2-9-14 via TATA; N-terminus assumed
SMILES: CC[C@H](C)[C@@H]1NC(=O)CNC(=O)[C@H](Cc2c[nH]c3cc(C)ccc23)NC(=O)[C@H](CCC(N)=O)NC(=O)[C@@H]2CSCCC(=O)N3CN(CN(C3)C(=O)CCSC[C@@H](C(=O)N[C@@H](C)C(N)=O)NC1=O)C(=O)CCSC[C@H](NC(=O)[C@H](C)N)C(=O)N[C@@H](CC(=O)O)C(=O)N[C@@H](CC(C)C)C(=O)N[C@@H]([C@@H](C)O)C(=O)N[C@@H]([C@@H](C)O)C(=O)N[C@@H](Cc1c[nH]cn1)C(=O)N[C@@H](CC(N)=O)C(=O)N2
notes: scaffold TATA
B12: BCY19723 (peptide)
peptide: ACDLTTHNCQ[Trp(7-Me)]GICA-NH2
modifications: linker 2-9-14 via TATA; N-terminus assumed
SMILES: CC[C@H](C)[C@@H]1NC(=O)CNC(=O)[C@H](Cc2c[nH]c3c(C)cccc23)NC(=O)[C@H](CCC(N)=O)NC(=O)[C@@H]2CSCCC(=O)N3CN(CN(C3)C(=O)CCSC[C@@H](C(=O)N[C@@H](C)C(N)=O)NC1=O)C(=O)CCSC[C@H](NC(=O)[C@H](C)N)C(=O)N[C@@H](CC(=O)O)C(=O)N[C@@H](CC(C)C)C(=O)N[C@@H]([C@@H](C)O)C(=O)N[C@@H]([C@@H](C)O)C(=O)N[C@@H](Cc1c[nH]cn1)C(=O)N[C@@H](CC(N)=O)C(=O)N2
notes: scaffold TATA
B13: BCY19724 (peptide)
peptide: ACDLTTHNCQ[Trp(6-F)]GICA-NH2
modifications: linker 2-9-14 via TATA
notes: scaffold TATA
B14: BCY19725 (peptide)
peptide: ACDLTTHNCQ[Trp(5-F)]GICA-NH2
modifications: linker 2-9-14 via TATA
notes: scaffold TATA
B15: BCY19732 (peptide)
peptide: ACDLTT[Ala(2-furyl)]NCQWGICA-NH2
modifications: linker 2-9-14 via TATA; N-terminus assumed
SMILES: CC[C@H](C)[C@@H]1NC(=O)CNC(=O)[C@H](Cc2c[nH]c3ccccc23)NC(=O)[C@H](CCC(N)=O)NC(=O)[C@@H]2CSCCC(=O)N3CN(CN(C3)C(=O)CCSC[C@@H](C(=O)N[C@@H](C)C(N)=O)NC1=O)C(=O)CCSC[C@H](NC(=O)[C@H](C)N)C(=O)N[C@@H](CC(=O)O)C(=O)N[C@@H](CC(C)C)C(=O)N[C@@H]([C@@H](C)O)C(=O)N[C@@H]([C@@H](C)O)C(=O)N[C@@H](Cc1ccco1)C(=O)N[C@@H](CC(N)=O)C(=O)N2
notes: scaffold TATA
B16: BCY19733 (peptide)
peptide: ACDLTTHNCQWG[Nva(3-Et)]CA-NH2
modifications: linker 2-9-14 via TATA; N-terminus assumed
SMILES: CCC(CC)[C@@H]1NC(=O)CNC(=O)[C@H](Cc2c[nH]c3ccccc23)NC(=O)[C@H](CCC(N)=O)NC(=O)[C@@H]2CSCCC(=O)N3CN(CN(C3)C(=O)CCSC[C@@H](C(=O)N[C@@H](C)C(N)=O)NC1=O)C(=O)CCSC[C@H](NC(=O)[C@H](C)N)C(=O)N[C@@H](CC(=O)O)C(=O)N[C@@H](CC(C)C)C(=O)N[C@@H]([C@@H](C)O)C(=O)N[C@@H]([C@@H](C)O)C(=O)N[C@@H](Cc1c[nH]cn1)C(=O)N[C@@H](CC(N)=O)C(=O)N2
notes: scaffold TATA
B17: BCY19734 (peptide)
peptide: ACDLTTHNCQWG[Nle]CA-NH2
modifications: linker 2-9-14 via TATA; N-terminus assumed
SMILES: CCCC[C@@H]1NC(=O)CNC(=O)[C@H](Cc2c[nH]c3ccccc23)NC(=O)[C@H](CCC(N)=O)NC(=O)[C@@H]2CSCCC(=O)N3CN(CN(C3)C(=O)CCSC[C@@H](C(=O)N[C@@H](C)C(N)=O)NC1=O)C(=O)CCSC[C@H](NC(=O)[C@H](C)N)C(=O)N[C@@H](CC(=O)O)C(=O)N[C@@H](CC(C)C)C(=O)N[C@@H]([C@@H](C)O)C(=O)N[C@@H]([C@@H](C)O)C(=O)N[C@@H](Cc1c[nH]cn1)C(=O)N[C@@H](CC(N)=O)C(=O)N2
notes: scaffold TATA
B18: BCY19735 (peptide)
peptide: ACDLTTHNCQWG[aIle]CA-NH2
modifications: linker 2-9-14 via TATA
notes: scaffold TATA
B19: BCY17224 (peptide)
peptide: Ac-CY[Cba]PDYLC[dA]DEYCK(Pent4ynoyl)-NH2
modifications: linker 1-8-13 via TATA
SMILES: C#CCCC(=O)NCCCC[C@H](NC(=O)[C@@H]1CSCCC(=O)N2CN3CN(C2)C(=O)CCSC[C@H](NC(=O)[C@H](CC(C)C)NC(=O)[C@H](Cc2ccc(O)cc2)NC(=O)[C@H](CC(=O)O)NC(=O)[C@@H]2CCCN2C(=O)[C@H](CC2CCC2)NC(=O)[C@H](Cc2ccc(O)cc2)NC(=O)[C@@H](NC(C)=O)CSCCC3=O)C(=O)N[C@H](C)C(=O)N[C@@H](CC(=O)O)C(=O)N[C@@H](CCC(=O)O)C(=O)N[C@@H](Cc2ccc(O)cc2)C(=O)N1)C(N)=O
notes: scaffold TATA
B20: BCY14456 (peptide)
peptide: ACNLQKPCMKYPCA-NH2
modifications: linker 2-8-13 via TATA; also: scaffold TATA, TATB or TBMT
notes: scaffold TATA

Target: T1, Human NKp46 Fc tag (Acro Biosystems, NC1-H5257) (human, UniProt O76036 22-255)
T1 construct: bought; also called Fc-tagged human NKp46
T1 sequence (O76036 22-255 limits assumed): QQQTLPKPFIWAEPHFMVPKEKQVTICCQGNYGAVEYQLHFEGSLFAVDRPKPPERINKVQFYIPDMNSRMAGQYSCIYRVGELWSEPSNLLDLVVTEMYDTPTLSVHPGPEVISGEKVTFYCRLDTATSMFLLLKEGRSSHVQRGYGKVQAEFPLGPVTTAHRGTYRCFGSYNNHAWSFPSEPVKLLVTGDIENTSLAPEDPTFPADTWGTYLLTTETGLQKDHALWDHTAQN
Assay: SPR Method 1 and/or 2
Outline: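 Fc-tagged human NKp46 captured on anti-human IgG surface (500–1000 RU); compounds run in PBS-P+ with 2% DMSO at 25 °C, 50 μL/min, 60 s association, 400 s dissociation. Double-referenced, DMSO-corrected; KD from steady-state 1:1 fit, kinetic constants from kinetic 1:1 fit where appropriate.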

Binder | Kd [nM]
B1 | 3730
B2 | 2610
B3 | 4030
B4 | 1690
B5 | 1620
B6 | 1200
B7 | 1050
B8 | 2360
B9 | 598
B10 | 374
B11 | 1460
B12 | 2270
B13 | 1390
B14 | 457
B15 | 964
B16 | 354
B17 | 611
B18 | 460
B19 | 3.5
B20 | 703
